Tested on: untransfected 3T3 cells
Test: untransfected parent 3T3 control cells (XTT)
Format: cell-based
Settings: Example 5 serum-free conditions
Procedure: Specifically, 3T3 cells cultured in tissue culture plates (Becton Dickinson Labware, Lincoln Park, N.J.) were removed from the plates by washing cells twice in Hank's buffered saline solution (HBSS; Gibco Laboratories, Grand Island, N.Y.). Non-enzymatic cell dissociation buffer (Gibco) was added for 15 minutes at room temperature. The resulting cells were washed in medium. FLT3 3T3 cells were cultured at a final concentration of 3,000 cells per well in a volume of 100 μL of serum-defined medium containing […] rhIL1-α, 10% AIMV (Gibco, Grand Island, N.Y.) and 90% Dulbecco's modification of Eagle's medium (DMEM; Gibco) in 96 well plates. […] Proliferation and cell survival was quantitated by addition of XTT (2, 3-bis[Methoxy-4-nitro-5sulfophenyl]-2H-tetrazolium-5 carboxanilide inner salt) (Diagnostic Chemicals Ltd, Charlottetown, Prince Edward Island, Canada), which is a […] cleaved by actively respiring cells (Roehm et al., J. Immunol. Methods 142: 257-265, 1991). Proliferation and cell survival was quantitated spectrophotometrically using a Vmax kinetic plate reader (Molecular Devices Corp., Mountain View, Calif.), and recorded as either relative activity (units/mL) or as specific activity (units/mg). One unit of biological activity was defined as the reciprocal dilution at which half-maximal stimulation of cells is detected. […]

B1: Pv-FRIL: FRIL family mannose-binding lectin from Phaseolus vulgaris (red kidney bean), SEQ ID NO: 6 (protein)
chain: AQSLSFNFTKFDLDQKDLIFQGDATSTNNVLQLTKLDSGGNPVGASVGRVLFSAPFHLWENSMAVSSFETNLTIQISTPHPYYAADGFAFFLAPHDTVIPPNSWGKFLGLYSNVFRNSPTSENQSFGDVNTDSRVVAVEFDTFPNANIDPNYRHIGIDVNSIKSKETARWEWQNGKTATARISYNSASKKSTVTTFYPGMEVVALSHDVDLHAELPEWVRVGLSASTGEEKQKNTIISWSFTSSLKNNEVKEPKEDMYIANVVRSYTWINDVLSYISNKMYDALNNNHKYVRCSTCMLFMKKK
response of parent untransfected 3T3 cells: did not

From patent US6991794B1, “Progenitor cell preservation factors and methods for and products of their use” (ImClone Systems Incorporated, priority 1997, dated 2006)
